Measurements published in PMC10040528, “A [4Fe-4S] cluster resides at the active center of phosphomevalonate dehydratase, a key enzyme in the archaeal modified mevalonate pathway” (Frontiers in Microbiology, 2023).

What was measured:
[1] = substrate: C/C(=C\C(=O)O)CCOP(=O)(O)O; assay: coupled colorimetric assay (MVA5P kinase/pyruvate kinase/pyruvate oxidase/peroxidase, resorufin), Michaelis-Menten fit; assay type: biochemical, Aeropyrum pernix; settings: reverse reaction (hydration of tAHMP to MVA5P), 70 mM Tris-HCl pH 7.0, 70 °C, anaerobic, reconstructed His-tagged enzyme
Source text: coupled colorimetric assay (MVA5P kinase/pyruvate kinase/pyruvate oxidase/peroxidase, resorufin), Michaelis-Menten fit on […]

[2] = molecular target: T1, Aeropyrum pernix phosphomevalonate dehydratase (ApPMDh) large subunit Ape_2087.1, polyhistidine-tagged (Aeropyrum pernix, UniProt Q9YA51 1-402); assay: pull-down; as a1, but from a mixture of about equal amounts of cells co-expressing both subunits and cells expressing only untagged Ape_2089 (excess small subunit supplied); subunit ratio from SDS-PAGE and ImageJ; settings: partners not purified
T1 construct: large subunit Ape_2087.1 of phosphomevalonate dehydratase (type IIb aconitase X), Aeropyrum pernix; also called (His)6-Ape2087.1; large subunit of ApPMDh; source: E. coli Rosetta2 (DE3), pET-HisApPMDh, co-expressed with Ape_2089; heat-treated cell extract, Histrap FF; not shown: polyhistidine ((His)6), N-terminal, kept
T1 sequence (looked up): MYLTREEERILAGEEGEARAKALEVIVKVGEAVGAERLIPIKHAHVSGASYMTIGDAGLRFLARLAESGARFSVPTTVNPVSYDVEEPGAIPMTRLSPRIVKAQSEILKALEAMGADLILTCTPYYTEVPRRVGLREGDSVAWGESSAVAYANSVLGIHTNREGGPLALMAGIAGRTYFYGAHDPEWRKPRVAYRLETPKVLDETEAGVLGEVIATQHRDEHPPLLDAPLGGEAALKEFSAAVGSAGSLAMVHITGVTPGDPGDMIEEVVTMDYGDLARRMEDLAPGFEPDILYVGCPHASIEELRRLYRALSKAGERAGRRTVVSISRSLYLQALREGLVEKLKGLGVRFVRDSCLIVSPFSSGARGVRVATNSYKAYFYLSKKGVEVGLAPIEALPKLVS

[3] = molecular target: T1, Aeropyrum pernix phosphomevalonate …; assay: pull-down; polyhistidine-tagged large subunit co-expressed with untagged small subunit in E. coli; heat-treated (60°C, 30 min) cell extract on Histrap FF, anaerobic; 20 mM sodium phosphate pH 7.4, 500 mM NaCl, 20 mM imidazole; eluted with 150 mM imidazole; subunit ratio from 15% SDS-PAGE and ImageJ; settings: partners not purified

Row | Binder | Km [1] [µM] | kcat [1] [s⁻¹] | stoichiometry N [2] | stoichiometry N [3]
1 | ApPMDh (Aeropyrum pernix phosphomevalonate dehydratase) (Aeropyrum pernix K1) (protein, N-terminal His6 tag with HRV3C site on large subunit, small subunit untagged; co-expressed in E. coli Rosetta2(DE3); 1:1 heteromeric complex; tag kept for kinetics, cut for EPR and iron assay; Fe-S cluster reconstituted anaerobically) chain 1: MYLTREEERILAGEEGEARAKALEVIVKVGEAVGAERLIPIKHAHVSGASYMTIGDAGLRFLARLAESGARFSVPTTVNPVSYDVEEPGAIPMTRLSPRIVKAQSEILKALEAMGADLILTCTPYYTEVPRRVGLREGDSVAWGESSAVAYANSVLGIHTNREGGPLALMAGIAGRTYFYGAHDPEWRKPRVAYRLETPKVLDETEAGVLGEVIATQHRDEHPPLLDAPLGGEAALKEFSAAVGSAGSLAMVHITGVTPGDPGDMIEEVVTMDYGDLARRMEDLAPGFEPDILYVGCPHASIEELRRLYRALSKAGERAGRRTVVSISRSLYLQALREGLVEKLKGLGVRFVRDSCLIVSPFSSGARGVRVATNSYKAYFYLSKKGVEVGLAPIEALPKLVS chain 2: MEVLRYRSRPIVGGEAEGPAVVIDSLSFYGEVDPETGVTSGGKPLAGRVAAIRRSRGSTVGSYVIYALKENGVAPLAILMERAEPIVIAGCVLAGIPLYDGLPPEFFERVRDGYRVRVHSDGLVEVLGPGQP | 18.3 | 15.2 | – | –
2 | Aeropyrum pernix phosphomevalonate dehydratase (ApPMDh) small subunit Ape_2089, untagged (natural protein, UniProt Q9YA49 1-132, looked up, small subunit Ape_2089 of phosphomevalonate dehydratase (type IIb aconitase X), Aeropyrum pernix; also called tag-free Ape_2089; small subunit of ApPMDh; source: E. coli Rosetta2 (DE3), co-expressed from pET-HisApPMDh (and expressed alone from pET-ApPMDh-S); heat-treated cell extract) MEVLRYRSRPIVGGEAEGPAVVIDSLSFYGEVDPETGVTSGGKPLAGRVAAIRRSRGSTVGSYVIYALKENGVAPLAILMERAEPIVIAGCVLAGIPLYDGLPPEFFERVRDGYRVRVHSDGLVEVLGPGQP | – | – | ~1 small subunit per large subunit | 1 small subunit per large subunit
